# Like-named read-outs stand apart in the source and are kept apart here.
# Experiments:
# [1] = target: T1, Hyper-IL-6 (sIL-6R/IL-6 fusion) (UniProt P08887 20-323+P05231:30-212, internal_change); test: filter binding
# [2] = target: T1, Hyper-IL-6 (sIL-6R/IL-6 fusion); test: filter binding; remark: listed apart in the source
# [3] = target: T1, Hyper-IL-6 (sIL-6R/IL-6 fusion); test: filter binding; remark: listed apart in the source
# IL-6 = IL-6 (human, UniProt P05231 30-212); test: filter binding
# IL-6, sequence (P05231 30-212): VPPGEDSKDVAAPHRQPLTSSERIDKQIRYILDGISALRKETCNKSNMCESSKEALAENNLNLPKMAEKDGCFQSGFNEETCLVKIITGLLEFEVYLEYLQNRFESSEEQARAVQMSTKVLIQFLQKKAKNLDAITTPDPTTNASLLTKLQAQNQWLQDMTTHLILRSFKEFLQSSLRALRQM
# thrombin = thrombin (UniProt P00734;P00734 328-363;364-622); test: filter binding
# [4] = target: T1, Hyper-IL-6 (sIL-6R/IL-6 fusion); test: SPR
Binder,binding result [1],Kd [2] [nM],also measured
GGTTGGGTGGGTGGGT (structured_DNA) [AID-1-G3T],no binding,–,–
GGGTGGGTGGGAGGGT (structured_DNA) [AID-1-T12A],–,234 ± 71,–
GTTTGTGTTTGTGTGT (ssDNA) [NK3],–,–,binding result [2]: no binding
GGGTGGGTGGGTGTGT (structured_DNA) [AID-1-G14T],no binding,–,–
GGGGTGGGGTGGGGTGGGGT (structured_DNA) [d(GGGGT)4],no binding,–,–
GGGTGGGTGGGTGGG (structured_DNA) [AID-1-T],–,127 ± 79,–
GGGAGGGTGGGTGGGT (structured_DNA) [AID-1-T4A],–,420 ± 160,–
GGGUGUGUGGGUGGGU (structured_RNA) [rAID-1-G6U],–,–,binding result [2]: no binding
GGTTGGTGTGGTTGG (structured_DNA) [TBA],no binding,–,–
GGGTGGGAGGGTGGGT (structured_DNA) [AID-1-T8A],–,316 ± 59,–
GGTGGTGGTGGT (structured_DNA) [d(GGT)4],no binding,–,–
GGGGAGGCUGUGGUGAUGG (structured_RNA) [AIR-3A-G17U],no binding,–,–
GGGGAGGCUGUGGUGAUUG (structured_RNA) [AIR-3A-G17/18U],–,–,binding result [2]: no binding
GGGGAGGCUGUGGUGAGGG (structured_RNA) [AIR-3A],–,82 ± 9,–
GGGAGGGAGGGAGGGA (structured_DNA) [AID-1+A],–,–,Kd [3]: 691 ± 271 nM
GGGTGGGTGTGTGGGT (structured_DNA) [AID-1-G10T],no binding,–,–
GGGTGAGTGGGTGAGT (ssDNA) [AID-1-G6A/G14A],no binding,–,–
GGGTGTGTGGGTGGGT (structured_DNA) [AID-1-G6T],no binding,–,–
TGGTGGGTGGGTGGGT (structured_DNA) [AID-1-G1T],no binding,–,–
GGGUGGGUGGGUGGG (structured_RNA) [rAID-1-U],–,199 ± 65,–
GGGUGGGUGGGUGGGU (structured_RNA) [rAID-1],–,208 ± 53,–
GGGTGGGTGGGTGGGA (structured_DNA) [AID-1-T16A],–,693 ± 392,–
GGGTGGGTGGGTGGGT (structured_DNA) [AID-1 (T30923)],–,209 ± 96,binding result (IL-6): no binding; binding result (thrombin): no binding; Kd [4]: 490 nM
GTGTGTGTGTGTGTGT (ssDNA) [PolyGT],no binding,–,–
GTGTGGGTGGGTGGGT (structured_DNA) [AID-1-G2T],no binding,–,–
GTGGTGGGTGGGTGGGT (structured_DNA) [T30175],–,293 ± 94,binding result (IL-6): no binding
GGGTGAGTGGGTGGGT (structured_DNA) [AID-1-G6A],no binding,–,–

# — PMC3594281
